Patent US20240238263A1, “USE OF PYRIDONE DERIVATIVE CONTAINING HETEROATOM CYCLOBUTANE SUBSTITUENT” (GUANGZHOU JOYO PHARMATECH CO., LTD, priority 2021, published 2024)

Tested on: dorsal skin full-thickness excisional wound in STZ-induced diabetic rats
Test: Dorsal skin full-thickness excisional wound model in STZ-induced diabetic rats, wound closure
Type: in vivo, Wistar rats
Settings: for Remaining open wound area: GeneTime 0.04 mL topical twice daily
Description: In this study, 50 STZ-diabetic rats were used to simulate Type 1 diabetes, with an additional 8 normal rats serving as the control group (normal blank gel control group (without STZ)). The method for modeling the STZ-diabetic rat is as follows: Male Wistar rats were weighed and then intraperitoneally injected with Streptozotocin (STZ, freshly prepared, dissolved in 0.1 M citrate buffer (pH 4.5)) at a dosage of 80 mg/kg. STZ was intraperitoneally injected twice in total, with a 5-day interval between injections. Three days after the second STZ injection, rats with fasting blood glucose levels greater than 250 mg/dl were defined as diabetic model rats. Studies on skin wound healing could be conducted from 1 to 8 weeks after the successful establishment of the diabetic rat model. • 2.
In diabetic model rats, the dorsal skin was marked with a stamp, and full-thickness excision was performed to create a standardized wound area. The day of the full-thickness skin excision surgery was designated as Day 1 of the experiment. The specified surgical procedure was as follows: • 1) Prior to surgery, animals were anesthetized with 2-5% isoflurane. The back was shaved and prepared, and the surgical area was disinfected with iodophor, followed by de-iodination with 75% alcohol. • 2) All animals were marked on the skin of their backs using a stamp with a circular pattern. A circular full-thickness skin excision was performed along the midline of the rat's back, extending down to the fascial layer. […] The surgical site was essentially consistent for each animal; • 3) Post-surgery, every 8-12 hours, 8 mg/kg of bupivacaine (diluted to 0.25% with physiological saline) was injected subcutaneously at the wound site. All animals were closely monitored until they regained consciousness. Animals were monitored daily, and if symptoms of pain persisted, they would continue to receive pain medication. • 4. Drug administration:
All experimental groups were topically administered. Before administering the medication, wounds were rinsed with physiological saline and any residual moisture was absorbed with a sterile cotton swab. Then, the medication was applied. For the GeneTime group, the solution was evenly applied to the wound and surrounding skin, with the dressing changed twice a day. For the other groups, the gel samples were applied from the periphery toward the center, focusing first on the edges of the lesion before covering inward, with the dressing changed twice a day. Medication was applied immediately after the wound model was created, and each group was continuously administered for 18 days. For specific administration information, see Table 2. • 5. Efficacy assessment • 1) Blood glucose monitoring: Blood samples were obtained from all animals via tail vein sampling, and fasting blood glucose levels were measured on days 0/9/18 using a glucometer. • 2) Evaluation of wound closure:
After anesthetizing the rats with isoflurane, a ruler was placed near the wound as a reference scale. Using a digital camera, photos of the wound on the rat's back were taken on days 1, 4, 8, 11, 14, and 18, maintaining a constant focus and pixel condition. The obtained images were processed by software to measure the wound area. • 6. Statistical analysis
Experimental data were expressed as the mean±standard error of the mean (mean±S.E.M.). Statistical analyses were conducted using appropriate methods in software such as Graphpad Prism or SPSS. A p-value of less than 0.05 is considered to indicate a significant difference. • 7. Results • 1) Fasting blood glucose
Remaining Open Wound Area %=Open Wound Area (O)/Initial Wound Area (I)*100%

B1: GeneTime: Recombinant Human Epidermal Growth Factor External Solution, 2000 IU/mL; positive control (protein, UniProt P01133 23-1207, looked up)
Pro-epidermal growth factor: PQHWSCPEGTLAGNGNSTCVGPAPFLIFSHGNSIFRIDTEGTNYEQLVVDAGVSVIMDFHYNEKRIYWVDLERQLLQRVFLNGSRQERVCNIEKNVSGMAINWINEEVIWSNQQEGIITVTDMKGNNSHILLSALKYPANVAVDPVERFIFWSSEVAGSLYRADLDGVGVKALLETSEKITAVSLDVLDKRLFWIQYNREGSNSLICSCDYDGGSVHISKHPTQHNLFAMSLFGDRIFYSTWKMKTIWIANKHTGKDMVRINLHSSFVPLGELKVVHPLAQPKAEDDTWEPEQKLCKLRKGNCSSTVCGQDLQSHLCMCAEGYALSRDRKYCEDVNECAFWNHGCTLGCKNTPGSYYCTCPVGFVLLPDGKRCHQLVSCPRNVSECSHDCVLTSEGPLCFCPEGSVLERDGKTCSGCSSPDNGGCSQLCVPLSPVSWECDCFPGYDLQLDEKSCAASGPQPFLLFANSQDIRHMHFDGTDYGTLLSQQMGMVYALDHDPVENKIYFAHTALKWIERANMDGSQRERLIEEGVDVPEGLAVDWIGRRFYWTDRGKSLIGRSDLNGKRSKIITKENISQPRGIAVHPMAKRLFWTDTGINPRIESSSLQGLGRLVIASSDLIWPSGITIDFLTDKLYWCDAKQSVIEMANLDGSKRRRLTQNDVGHPFAVAVFEDYVWFSDWAMPSVMRVNKRTGKDRVRLQGSMLKPSSLVVVHPLAKPGADPCLYQNGGCEHICKKRLGTAWCSCREGFMKASDGKTCLALDGHQLLAGGEVDLKNQVTPLDILSKTRVSEDNITESQHMLVAEIMVSDQDDCAPVGCSMYARCISEGEDATCQCLKGFAGDGKLCSDIDECEMGVPVCPPASSKCINTEGGYVCRCSEGYQGDGIHCLDIDECQLGEHSCGENASCTNTEGGYTCMCAGRLSEPGLICPDSTPPPHLREDDHHYSVRNSDSECPLSHDGYCLHDGVCMYIEALDKYACNCVVGYIGERCQYRDLKWWELRHAGHGQQQKVIVVAVCVVVLVMLLLLSLWGAHYYRTQKLLSKNPKNPYEESSRDVRSRRPADTEDGMSSCPQPWFVVIKEHQDLKNGGQPVAGEDGQAADGSMQPTSWRQEPQLCGMGTEQGCWIPVSSDKGSCPQVMERSFHMPSYGTQTLEGGVEKPHSLLSANPLWQQRALDPPHQMELTQ
modifications: Pro-epidermal growth factor
notes: Recombinant Human Epidermal Growth Factor External Solution, 2000 IU/mL; positive control
Remaining open wound area (Day 1 (day of surgery)): 100% ±
Remaining open wound area (Day 4): 91.82% ±
Remaining open wound area (Day 8): 52.36% ±
Remaining open wound area (Day 14): 8.17% ±
Remaining open wound area (Day 18): 1.79% ±
Change of remaining open wound area % vs model blank gel control group (GeneTime, day 11 after administration, P<0.05): significantly reduced
